Here are results for two substances from paper PMC7299281.

For this assay, the target named is prefusion S protein of SARS-CoV (SARS-CoV).

For the substance COVA2-02 (antibody), the IC50 of neutralisation of SARS-CoV pseudovirus was 0.61 µg/mL.

In the case of COVA1-16 (antibody), the IC50 of neutralisation of SARS-CoV pseudovirus worked out at 2.5 µg/mL.
